From the supplement of paper PMC5998384

Legend:
HeLa Kyoto [1] = assay: melting temperature (median over replicates), in situ; higher = more thermally stable
HeLa Kyoto [2] = assay: solubility in G1/S (NP-40 vs SDS abundance) (log2 ratio); higher = more soluble; conditions: cell cycle stage: G1/S
HeLa Kyoto [3] = assay: solubility change mitosis vs G1/S (difference of NP-40 vs SDS log2 ratios) (log2 ratio difference); higher = more soluble in mitosis
HeLa Kyoto [4] = assay: thermal stability score vs G1/S (z-score of summed log2 fold changes over temperatures); higher = more thermally stable than in G1/S
[5] = cell cycle stage: early G1 (4.5 h after nocodazole release)
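Throughout, for melting temperature (median over replicates), in situ: HeLa Kyoto cells synchronized by double thymidine or nocodazole block, proteins quantified by TMT10plex mass spectrometry, three independent biological replicates.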
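Throughout, for solubility change mitosis vs G1/S (difference of NP-40 vs SDS log2 ratios): synchronized HeLa Kyoto cells (double thymidine block for G1/S, nocodazole release for mitosis), protein amounts in NP-40 versus SDS lysates quantified by mass spectrometry, three biological replicates.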
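Throughout, for solubility in G1/S (NP-40 vs SDS abundance): HeLa Kyoto cells arrested at G1/S by double thymidine block, proteins quantified by TMT10plex mass spectrometry in mild NP-40 versus SDS extracts, three biological replicates.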
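Throughout, for thermal stability score vs G1/S (z-score of summed log2 fold changes over temperatures): synchronized HeLa Kyoto cells, proteins quantified by TMT10plex mass spectrometry, three biological replicates, mitosis taken 0.5 h after nocodazole release, G1/S directly after double thymidine block.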

| Sequence | melting temperature (HeLa Kyoto [1]; cell cycle stage: G1/S) | melting temperature (HeLa Kyoto [1]; cell cycle stage: mitosis) | solubility in G1/S (log2) (HeLa Kyoto [2]) | solubility change mitosis (log2) (HeLa Kyoto [3]) | thermal stability score (HeLa Kyoto [4]; [5]) | thermal stability score (HeLa Kyoto [4]; cell cycle stage: mitosis) |
| --- | --- | --- | --- | --- | --- | --- |
| MDRGTLPLAVALLLASCSLSPTSLAETVHCDLQPVGPERGEVTYTTSQVSKGCVAQAPNAILEVHVLFLEFPTGPSQLELTLQASKQNGTWPREVLLVLSVNSSVFLHLQALGIPLHLAYNSSLVTFQEPPGVNTTELPSFPKTQILEWAAERGPITSAAELNDPQSILLRLGQAQGSLSFCMLEASQDMGRTLEWRPRTPALVRGCHLEGVAGHKEAHILRVLPGHSAGPRTVTVKVELSCAPGDLDAVLILQGPPYVSWLIDANHNMQIWTTGEYSFKIFPEKNIRGFKLPDTPQGLLGEARMLNASIVASFVELPLASIVSLHASSCGGRLQTSPAPIQTTPPKDTCSPELLMSLIQTKCADDAMTLVLKKELVAHLKCTITGLTFWDPSCEAEDRGDKFVLRSAYSSCGMQVSASMISNEAVVNILSSSSPQRKKVHCLNMDSLSFQLGLYLSPHFLQASNTIEPGQQSFVQVRVSPSVSEFLLQLDSCHLDLGPEGGTVELIQGRAAKGNCVSLLSPSPEGDPRFSFLLHFYTVPIPKTGTLSCTVALRPKTGSQDQEVHRTVFMRLNIISPDLSGCTSKGLVLPAVLGITFGAFLIGALLTAALWYIYSHTRSPSKREPVVAVAAPASSESSSTNHSIGSTQSTPCSTSSMA [ENG] | 56.1 °C | 55.6 °C | 0.178 | -0.131 | -1.8 | -2.37 |
| MDRPLSSSAEAEEELEWQVASRRRKAWAKCRSSWQASETEDLSTEATTQDEEEDEEEDLPGAQLPAAGGRGNVPNEKIAIWLKDCRTPLGASLDEQSSSTLKGVLVRNGGSFEDDLSLGAEANHLHESDAQIENCNNILAKERRLQFHQKGRSMNSTGSGKSSGTVSSVSELLELYEEDPEEILYNLGFGRDEPDIASKIPSRFFNSSSFAKGIDIKVFLSAQMQRMEVENPNYALTSRFRQIEVLTTVANAFSSLYSQVSGTPLQRIGSMSSVTSNKETDPPPPLTRSNTANRLMKTLSKLNLCVDKTEKGESSSPSPSAEKGKILNVSVIEESGNKNDQKSQKIMKKKESSSMLATVKEEVSGSSAAVTENADSDRISDEANSNFNQGTENEQSKETQSHESKLGEESGIVESKLDSDFNISSHSELENSSELKSVHISTPEKEPCAPLTIPSIRNIMTQQKDSFEMEEVQSTEGEAPHVPATYQLGLTKSKRDHLLRTASQHSDSSGFAEDSTDCLSLNHLQVQESLQAMGSSADSCDSETTVTSLGEDLATPTAQDQPYFNESEEESLVPLQKGLEKAAAVADKRKSGSQDFPQCNTIENTGTKQSTCSPGDHIIEITEVEEDLFPAETVELLREASAESDVGKSSESEFTQYTTHHILKSLASIEAKCSDMSSENTTGPPSSMDRVNTALQRAQMKVCSLSNQRMGRSLLKSKDLLKQRYLFAKAGYPLRRSQSLPTTLLSPVRVVSSVNVRLSPGKETRCSPPSFTYKYTPEEEQELEKRVMEHDGQSLVKSTIFISPSSVKKEEAPQSEAPRVEECHHGRTPTCSRLAPPPMSQSTCSLHSIHSEWQERPLCEHTRTLSTHSVPNISGATCSAFASPFGCPYSHRHATYPYRVCSVNPPSAIEMQLRRVLHDIRNSLQNLSQYPMMRGPDPAAAPYSTQKSSVLPLYENTFQELQVMRRSLNLFRTQMMDLELAMLRQQTMVYHHMTEEERFEVDQLQGLRNSVRMELQDLELQLEERLLGLEEQLRAVRMPSPFRSSALMGMCGSRSADNLSCPSPLNVMEPVTELMQEQSYLKSELGLGLGEMGFEIPPGESSESVFSQATSESSSVCSGPSHANRRTGVPSTASVGKSKTPLVARKKVFRASVALTPTAPSRTGSVQTPPDLESSEEVDAAEGAPEVVGPKSEVEEGHGKLPSMPAAEEMHKNVEQDELQQVIREIKESIVGEIRREIVSGLLAAVSSSKASNSKQDYH [SSFA2] | 50.8 °C | 49.8 °C | -0.81 | 0.802 | -1.42 | -0.947 |
| MDRSKENCISGPVKATAPVGGPKRVLVTQQFPCQNPLPVNSGQAQRVLCPSNSSQRIPLQAQKLVSSHKPVQNQKQKQLQATSVPHPVSRPLNNTQKSKQPLPSAPENNPEEELASKQKNEESKKRQWALEDFEIGRPLGKGKFGNVYLAREKQSKFILALKVLFKAQLEKAGVEHQLRREVEIQSHLRHPNILRLYGYFHDATRVYLILEYAPLGTVYRELQKLSKFDEQRTATYITELANALSYCHSKRVIHRDIKPENLLLGSAGELKIADFGWSVHAPSSRRTTLCGTLDYLPPEMIEGRMHDEKVDLWSLGVLCYEFLVGKPPFEANTYQETYKRISRVEFTFPDFVTEGARDLISRLLKHNPSQRPMLREVLEHPWITANSSKPSNCQNKESASKQS [AURKA] | 50 °C | 50.8 °C | -0.00432 | -0.0266 | -0.0408 | -0.506 |
| MDRTCEERPAEDGSDEEDPDSMEAPTRIRDTPEDIVLEAPASGLAFHPARDLLAAGDVDGDVFVFSYSCQEGETKELWSSGHHLKACRAVAFSEDGQKLITVSKDKAIHVLDVEQGQLERRVSKAHGAPINSLLLVDENVLATGDDTGGICLWDQRKEGPLMDMRQHEEYIADMALDPAKKLLLTASGDGCLGIFNIKRRRFELLSEPQSGDLTSVTLMKWGKKVACGSSEGTIYLFNWNGFGATSDRFALRAESIDCMVPVTESLLCTGSTDGVIRAVNILPNRVVGSVGQHTGEPVEELALSHCGRFLASSGHDQRLKFWDMAQLRAVVVDDYRRRKKKGGPLRALSSKTWSTDDFFAGLREEGEDSMAQEEKEETGDDSD [WDR55] | 51.3 °C | 51.4 °C | -0.0916 | -0.0465 | -0.454 | -1.73 |
| MDSAGQDINLNSPNKGLLSDSMTDVPVDTGVAARTPAVEGLTEAEEEELRAELTKVEEEIVTLRQVLAAKERHCGELKRRLGLSTLGELKQNLSRSWHDVQVSSAYVKTSEKLGEWNEKVTQSDLYKKTQETLSQAGQKTSAALSTVGSAISRKLGDMRNSATFKSFEDRVGTIKSKVVGDRENGSDNLPSSAGSGDKPLSDPAPF [TPD52L2] | 53 °C | 52.7 °C | 0.127 | 0.6 | -4.67 | -5.07 |
| MDSEAFQSARDFLDMNFQSLAMKHMDLKQMELDTAAAKVDELTKQLESLWSDSPAPPGPQAGPPSRPPRYSSSSIPEPFGSRGSPRKAATDGADTPFGRSESAPTLHPYSPLSPKGRPSSPRTPLYLQPDAYGSLDRATSPRPRAFDGAGSSLGRAPSPRPGPGPLRQQGPPTPFDFLGRAGSPRGSPLAEGPQAFFPERGPSPRPPATAYDAPASAFGSSLLGSGGSAFAPPLRAQDDLTLRRRPPKAWNESDLDVAYEKKPSQTASYERLDVFARPASPSLQLLPWRESSLDGLGGTGKDNLTSATLPRNYKVSPLASDRRSDAGSYRRSLGSAGPSGTLPRSWQPVSRIPMPPSSPQPRGAPRQRPIPLSMIFKLQNAFWEHGASRAMLPGSPLFTRAPPPKLQPQPQPQPQPQSQPQPQLPPQPQTQPQTPTPAPQHPQQTWPPVNEGPPKPPTELEPEPEIEGLLTPVLEAGDVDEGPVARPLSPTRLQPALPPEAQSVPELEEVARVLAEIPRPLKRRGSMEQAPAVALPPTHKKQYQQIISRLFHRHGGPGPGGPEPELSPITEGSEARAGPPAPAPPAPIPPPAPSQSSPPEQPQSMEMRSVLRKAGSPRKARRARLNPLVLLLDAALTGELEVVQQAVKEMNDPSQPNEEGITALHNAICGANYSIVDFLITAGANVNSPDSHGWTPLHCAASCNDTVICMALVQHGAAIFATTLSDGATAFEKCDPYREGYADCATYLADVEQSMGLMNSGAVYALWDYSAEFGDELSFREGESVTVLRRDGPEETDWWWAALHGQEGYVPRNYFGLFPRVKPQRSKV [PPP1R13L] | 51.2 °C | 51.5 °C | 0.09 | 0.0483 | -0.761 | 0.0817 |
| MDSRVSELFGGCCRPGGGPAVGGTLKARGAGSSSGCGGPKGKKKNGRNRGGKANNPPYLPPEAEDGNIEYKLKLVNPSQYRFEHLVTQMKWRLQEGRGEAVYQIGVEDNGLLVGLAEEEMRASLKTLHRMAEKVGADITVLREREVDYDSDMPRKITEVLVRKVPDNQQFLDLRVAVLGNVDSGKSTLLGVLTQGELDNGRGRARLNLFRHLHEIQSGRTSSISFEILGFNSKGEVVNYSDSRTAEEICESSSKMITFIDLAGHHKYLHTTIFGLTSYCPDCALLLVSANTGIAGTTREHLGLALALKVPFFIVVSKIDLCAKTTVERTVRQLERVLKQPGCHKVPMLVTSEDDAVTAAQQFAQSPNVTPIFTLSSVSGESLDLLKVFLNILPPLTNSKEQEELMQQLTEFQVDEIYTVPEVGTVVGGTLSSGICREGDQLVVGPTDDGCFLELRVCSIQRNRSACRVLRAGQAATLALGDFDRALLRKGMVMVSPEMNPTICSVFEAEIVLLFHATTFRRGFQVTVHVGNVRQTAVVEKIHAKDKLRTGEKAVVRFRFLKHPEYLKVGAKLLFREGVTKGIGHVTDVQAITAGEAQANMGF [GTPBP2] | 49.9 °C | 50.1 °C | -0.711 | 0.127 | 0.507 | 0.439 |
| MDSTLTASEIRQRFIDFFKRNEHTYVHSSATIPLDDPTLLFANAGMNQFKPIFLNTIDPSHPMAKLSRAANTQKCIRAGGKHNDLDDVGKDVYHHTFFEMLGSWSFGDYFKELACKMALELLTQEFGIPIERLYVTYFGGDEAAGLEADLECKQIWQNLGLDDTKILPGNMKDNFWEMGDTGPCGPCSEIHYDRIGGRDAAHLVNQDDPNVLEIWNLVFIQYNREADGILKPLPKKSIDTGMGLERLVSVLQNKMSNYDTDLFVPYFEAIQKGTGARPYTGKVGAEDADGIDMAYRVLADHARTITVALADGGRPDNTGRGYVLRRILRRAVRYAHEKLNASRGFFATLVDVVVQSLGDAFPELKKDPDMVKDIINEEEVQFLKTLSRGRRILDRKIQSLGDSKTIPGDTAWLLYDTYGFPVDLTGLIAEEKGLVVDMDGFEEERKLAQLKSQGKGAGGEDLIMLDIYAIEELRARGLEVTDDSPKYNYHLDSSGSYVFENTVATVMALRREKMFVEEVSTGQECGVVLDKTCFYAEQGGQIYDEGYLVKVDDSSEDKTEFTVKNAQVRGGYVLHIGTIYGDLKVGDQVWLFIDEPRRRPIMSNHTATHILNFALRSVLGEADQKGSLVAPDRLRFDFTAKGAMSTQQIKKAEEIANEMIEAAKAVYTQDCPLAAAKAIQGLRAVFDETYPDPVRVVSIGVPVSELLDDPSGPAGSLTSVEFCGGTHLRNSSHAGAFVIVTEEAIAKGIRRIVAVTGAEAQKALRKAESLKKCLSVMEAKVKAQTAPNKDVQREIADLGEALATAVIPQWQKDELRETLKSLKKVMDDLDRASKADVQKRVLEKTKQFIDSNPNQPLVILEMESGASAKALNEALKLFKMHSPQTSAMLFTVDNEAGKITCLCQVPQNAANRGLKASEWVQQVSGLMDGKGGGKDVSAQATGKNVGCLQEALQLATSFAQLRLGDVKN [AARS] | 51.6 °C | 52.1 °C | 0.201 | -0.1 | 2.25 | 2.81 |
